Experimental data: paper PMC8322138, “BRCA2 binding through a cryptic repeated motif to HSF2BP oligomers does not impact meiotic recombination” (Nature Communications, 2021)

Tested on: BRCA2 (Flag-F9)
Assay: Co-immunoprecipitation of GFP-HSF2BP variants with Flag-BRCA2 F9
Format: cell-based, human
Conditions: transient HEK293T / stable HeLa, anti-GFP beads, immunoblot
Source text: Expression constructs for producing point mutation and truncation variants of HS2BP and BRCA2 in human cells were engineered as described before[16] in the PiggyBac vectors by Gibson assembly. For transient expression into HEK293T cells plasmid DNA was transfected using calcium precipitation method or PEI transfection. For stable integration into HeLa cells, PiggyBac expression vectors were co-lipofected together with PiggyBac transposase plasmid (hyPBase[45]) with Lipofectamine 3000 (Thermo Fisher).
Cells were washed twice in ice-cold PBS and lysed in situ in NETT buffer (100 mM NaCl, 50 mM Tris pH 7.5, 5 mM EDTA pH 8.0, 0.5% Triton-X100) supplemented immediately before use with protease inhibitor cocktail (Roche) and 0.4 mg/ml Pefabloc (Roche) (NETT++); 450 µl NETT++ buffer was used per 145 mm dish ES cells, 1 ml for HeLa and HEK293T. After 5–10 min, cells were scraped off and collected in 1.5 ml microcentrifuge tubes; lysis was continued for additional 20–30 min on ice, then mixtures were centrifuged (15 min, 4 °C, 14,000 × g) and the supernatant (input) was added to washed anti-GFP beads (Chromotek). Beads and lysates were incubated 2–4 h at 4 °C while rotating, washed three times in NETT++ buffer and bound proteins were eluted by boiling in 2x Sample buffer. Immunoblotting was performed following standard procedures with the following antibodies: anti-GFP mAb (Roche, #11814460001), anti-GFP pAb (Abcam #ab290 and Invitrogen #A11122), anti-RAD51[46], anti-BRCA2 mAb Ab1 OP-95 (Millipore #OP95), anti-BRCA2 (Abcam #27976), anti-Flag (M2 antibody, Sigma, F3165 and F1804). For quantitative immunoblotting fluorescently labeled secondary antibodies were used: anti-mouse CF680 (Sigma #SAB460199), anti-rabbit CF770 (Sigma #SAB460215); membranes were scanned using Odyssey CLx imaging system (LI-COR).

B1: N243H: GFP-HSF2BP point mutant (protein)
chain: MGEAGAAEEACRHMGTKEEFVKVRKKDLERLTTEVMQIRDFLPRILNGEVLESFQKLKIVEKNLERKEQELEQLKMDCEHFKARLETVQADNIREKKEKLALRQQLNEAKQQLLQQAEYCTEMGAAACTLLWGVSSSEEVVKAILGGDKALKFFSITGQTMESFVKSLDGDVQELDSDESQFVFALAGIVTNVAAIACGREFLVNSSRVLLDTILQLLGDLKPGQCTKLKVLMLMSLYNVSIHLKGLKYISESPGFIPLLWWLLSDPDAEVCLHVLRLVQSVVLEPEVFSKSASEFRSSLPLQRILAMSKSRNPRLQTAAQELLEDLRTLEHNV
modifications: left off: GFP, end not stated, kept
notes: GFP-HSF2BP point mutant
binding to BRCA2 (co-precipitation): totally abolished binding
binding to BRCA2 (co-precipitation) (listed as N243): failed to co-precipitate

B2: N192R: GFP-HSF2BP point mutant (protein)
chain: MGEAGAAEEACRHMGTKEEFVKVRKKDLERLTTEVMQIRDFLPRILNGEVLESFQKLKIVEKNLERKEQELEQLKMDCEHFKARLETVQADNIREKKEKLALRQQLNEAKQQLLQQAEYCTEMGAAACTLLWGVSSSEEVVKAILGGDKALKFFSITGQTMESFVKSLDGDVQELDSDESQFVFALAGIVTRVAAIACGREFLVNSSRVLLDTILQLLGDLKPGQCTKLKVLMLMSLYNVSINLKGLKYISESPGFIPLLWWLLSDPDAEVCLHVLRLVQSVVLEPEVFSKSASEFRSSLPLQRILAMSKSRNPRLQTAAQELLEDLRTLEHNV
modifications: left off: GFP, end not stated, kept
notes: GFP-HSF2BP point mutant
binding to BRCA2 (co-precipitation): totally abolished binding
binding to BRCA2 (co-precipitation) (listed as N192): failed to co-precipitate

B3: G199D: GFP-HSF2BP point mutant (protein)
chain: MGEAGAAEEACRHMGTKEEFVKVRKKDLERLTTEVMQIRDFLPRILNGEVLESFQKLKIVEKNLERKEQELEQLKMDCEHFKARLETVQADNIREKKEKLALRQQLNEAKQQLLQQAEYCTEMGAAACTLLWGVSSSEEVVKAILGGDKALKFFSITGQTMESFVKSLDGDVQELDSDESQFVFALAGIVTNVAAIACDREFLVNSSRVLLDTILQLLGDLKPGQCTKLKVLMLMSLYNVSINLKGLKYISESPGFIPLLWWLLSDPDAEVCLHVLRLVQSVVLEPEVFSKSASEFRSSLPLQRILAMSKSRNPRLQTAAQELLEDLRTLEHNV
modifications: left off: GFP, end not stated, kept
notes: GFP-HSF2BP point mutant
binding to BRCA2 (co-precipitation): abolished binding
binding to BRCA2 (co-precipitation) (listed as G199): failed to co-precipitate

B4: Y238A: GFP-HSF2BP point mutant (protein)
chain: MGEAGAAEEACRHMGTKEEFVKVRKKDLERLTTEVMQIRDFLPRILNGEVLESFQKLKIVEKNLERKEQELEQLKMDCEHFKARLETVQADNIREKKEKLALRQQLNEAKQQLLQQAEYCTEMGAAACTLLWGVSSSEEVVKAILGGDKALKFFSITGQTMESFVKSLDGDVQELDSDESQFVFALAGIVTNVAAIACGREFLVNSSRVLLDTILQLLGDLKPGQCTKLKVLMLMSLANVSINLKGLKYISESPGFIPLLWWLLSDPDAEVCLHVLRLVQSVVLEPEVFSKSASEFRSSLPLQRILAMSKSRNPRLQTAAQELLEDLRTLEHNV
modifications: left off: GFP, end not stated, kept
notes: GFP-HSF2BP point mutant
binding to BRCA2 (co-precipitation): totally abolished binding
binding to BRCA2 (co-precipitation) (listed as Y238): failed to co-precipitate

B5: N239K: GFP-HSF2BP point mutant (protein)
chain: MGEAGAAEEACRHMGTKEEFVKVRKKDLERLTTEVMQIRDFLPRILNGEVLESFQKLKIVEKNLERKEQELEQLKMDCEHFKARLETVQADNIREKKEKLALRQQLNEAKQQLLQQAEYCTEMGAAACTLLWGVSSSEEVVKAILGGDKALKFFSITGQTMESFVKSLDGDVQELDSDESQFVFALAGIVTNVAAIACGREFLVNSSRVLLDTILQLLGDLKPGQCTKLKVLMLMSLYKVSINLKGLKYISESPGFIPLLWWLLSDPDAEVCLHVLRLVQSVVLEPEVFSKSASEFRSSLPLQRILAMSKSRNPRLQTAAQELLEDLRTLEHNV
modifications: left off: GFP, end not stated, kept
notes: GFP-HSF2BP point mutant
binding to BRCA2 (co-precipitation): totally abolished binding
binding to BRCA2 (co-precipitation) (listed as N239): failed to co-precipitate

B6: E201A: GFP-HSF2BP point mutant (protein)
chain: MGEAGAAEEACRHMGTKEEFVKVRKKDLERLTTEVMQIRDFLPRILNGEVLESFQKLKIVEKNLERKEQELEQLKMDCEHFKARLETVQADNIREKKEKLALRQQLNEAKQQLLQQAEYCTEMGAAACTLLWGVSSSEEVVKAILGGDKALKFFSITGQTMESFVKSLDGDVQELDSDESQFVFALAGIVTNVAAIACGRAFLVNSSRVLLDTILQLLGDLKPGQCTKLKVLMLMSLYNVSINLKGLKYISESPGFIPLLWWLLSDPDAEVCLHVLRLVQSVVLEPEVFSKSASEFRSSLPLQRILAMSKSRNPRLQTAAQELLEDLRTLEHNV
modifications: left off: GFP, end not stated, kept
notes: GFP-HSF2BP point mutant
binding to BRCA2 (co-precipitation): did not impact BRCA2 binding
binding to BRCA2 (co-precipitation) (listed as E201): do not decrease binding

B7: K245T: GFP-HSF2BP point mutant (protein)
chain: MGEAGAAEEACRHMGTKEEFVKVRKKDLERLTTEVMQIRDFLPRILNGEVLESFQKLKIVEKNLERKEQELEQLKMDCEHFKARLETVQADNIREKKEKLALRQQLNEAKQQLLQQAEYCTEMGAAACTLLWGVSSSEEVVKAILGGDKALKFFSITGQTMESFVKSLDGDVQELDSDESQFVFALAGIVTNVAAIACGREFLVNSSRVLLDTILQLLGDLKPGQCTKLKVLMLMSLYNVSINLTGLKYISESPGFIPLLWWLLSDPDAEVCLHVLRLVQSVVLEPEVFSKSASEFRSSLPLQRILAMSKSRNPRLQTAAQELLEDLRTLEHNV
modifications: left off: GFP, end not stated, kept
notes: GFP-HSF2BP point mutant
binding to BRCA2 (co-precipitation): did not impact BRCA2 binding
binding to BRCA2 (co-precipitation) (listed as K245): do not decrease binding

B8: M235T: GFP-HSF2BP point mutant (protein)
chain: MGEAGAAEEACRHMGTKEEFVKVRKKDLERLTTEVMQIRDFLPRILNGEVLESFQKLKIVEKNLERKEQELEQLKMDCEHFKARLETVQADNIREKKEKLALRQQLNEAKQQLLQQAEYCTEMGAAACTLLWGVSSSEEVVKAILGGDKALKFFSITGQTMESFVKSLDGDVQELDSDESQFVFALAGIVTNVAAIACGREFLVNSSRVLLDTILQLLGDLKPGQCTKLKVLMLTSLYNVSINLKGLKYISESPGFIPLLWWLLSDPDAEVCLHVLRLVQSVVLEPEVFSKSASEFRSSLPLQRILAMSKSRNPRLQTAAQELLEDLRTLEHNV
modifications: left off: GFP, end not stated, kept
notes: GFP-HSF2BP point mutant
binding to BRCA2 (co-precipitation): still weakly bound to BRCA2

B9: R200E: GFP-HSF2BP point mutant (protein)
chain: MGEAGAAEEACRHMGTKEEFVKVRKKDLERLTTEVMQIRDFLPRILNGEVLESFQKLKIVEKNLERKEQELEQLKMDCEHFKARLETVQADNIREKKEKLALRQQLNEAKQQLLQQAEYCTEMGAAACTLLWGVSSSEEVVKAILGGDKALKFFSITGQTMESFVKSLDGDVQELDSDESQFVFALAGIVTNVAAIACGEEFLVNSSRVLLDTILQLLGDLKPGQCTKLKVLMLMSLYNVSINLKGLKYISESPGFIPLLWWLLSDPDAEVCLHVLRLVQSVVLEPEVFSKSASEFRSSLPLQRILAMSKSRNPRLQTAAQELLEDLRTLEHNV
modifications: left off: GFP, end not stated, kept
notes: GFP-HSF2BP point mutant
binding to BRCA2 (co-precipitation): totally abolished binding
